Test results: US20100143438A1, “BIOMOLECULES” (University of Strathclyde, priority 2006, published 2010)

Tested on: Fmoc-FRGD-PEGA surface tethered peptide (Fmoc-F↓RGD bond)
Assay: Enzymatic hydrolysis of PEGA surface tethered peptides analysed by HPLC
Format: biochemical
Details: for Fmoc-F-OH (%) / Fmoc-FR-OH (%): 37° C., 2 hours in enzyme solution, 100% = 4.08 nmol maximum Fmoc-peptide hydrolysed, n=9; for cleavage and selectivity for Fmoc-F↓RGD versus Fmoc-FR↓GD: HPLC
Procedure: Three proteolytic enzymes, chymotrypsin, thermolysin and proteinase K, that are known to cleave peptide bonds involving F amino acids in the P1 position were tested for their ability to selectively hydrolyse Fmoc-F↓RGD bond^15. […] Surfaces were incubated at 37° C. for 2 hours in enzyme solution (concentrations and activities are shown in Table 1) in phosphate buffer and the cleaved products were analysed by HPLC.
Surfaces were rinsed in a known volume (at least 4 ml) of a 50:50 mixture of acetonitrile (ACN) and water. The rinsing solution was kept and added to the enzyme solution that the surface was in. 1 ml of this solution was placed into an HPLC autosampler vial. The HPLC machine (manufactured by Dionex; California, USA) consisted of a P.680 HPLC pump joined to an ASI-100 Automated Sample Injector with a Dionex UVD17OU detector. The column was an EC 250/4.6 Nucleosil 100-5 C18, with an internal diameter of 4.6 mm and a column length of 250 mm containing particles of 5 μm in diameter. 100 μl was injected into the HPLC column at the start of each run and a buffer gradient run through the column, buffer A was 99.9% water and 0.1% TFA, buffer B was 99.9% ACN and 0.1% TFA. For quantification, three samples of each surface were produced and repeated three times.

Molecule	Fmoc-F-OH (%)	Fmoc-FR-OH (%)	cleavage and selectivity for Fmoc-F↓RGD versus Fmoc-FR↓GD	maximum amount of Fmoc-peptide cleaved from the surface (determined by HPLC) [nmol]
Thermolysin: proteolytic enzyme (metalloprotease) (protein, UniProt P00800 233-548, looked up) Thermolysin: ITGTSTVGVGRGVLGDQKNINTTYSTYYYLQDNTRGNGIFTYDAKYRTTLPGSLWADADNQFFASYDAPAVDAHYYAGVTYDYYKNVHNRLSYDGNNAAIRSSVHYSQGYNNAFWNGSQMVYGDGDGQTFIPLSGGIDVVAHELTHAVTDYTAGLIYQNESGAINEAISDIFGTLVEFYANKNPDWEIGEDVYTPGISGDSLRSMSDPAKYGDPDHYSKRYTGTQDNGGVHINSGIINKAAYLISQGGTHYGVSVVGIGRDKLGKIFYRALTQYLTPTSNFSQLRAAAVQSATDLYGSTSQEVASVKQAFDAVGVK	40 ± 2.4	27 ± 3.5	poor selectivity	
Proteinase K: proteolytic enzyme cleaving peptide bonds with F in P1 position (protein, UniProt P06873 106-384, looked up) Proteinase K: AAQTNAPWGLARISSTSPGTSTYYYDESAGQGSCVYVIDTGIEASHPEFEGRAQMVKTYYYSSRDGNGHGTHCAGTVGSRTYGVAKKTQLFGVKVLDDNGSGQYSTIIAGMDFVASDKNNRNCPKGVVASLSLGGGYSSSVNSAAARLQSSGVMVAVAAGNNNADARNYSPASEPSVCTVGASDRYDRRSSFSNYGSVLDIFGPGTSILSTWIGGSTRSISGTSMATPHVAGLAAYLMTLGKTTAASACRYIADTANKGDLSNIPFGTVNLLAYNNYQA	60 ± 3.0	40 ± 8.0	highest cleavage but poor selectivity	4.08
